Experimental data reported in IntAct's records for PubMed 15328353.

B1: Plasma serine protease inhibitor (Mus musculus), P70458 (parent)
chain: MRFFPILCLVLFISHGVASRRHSHSKKKKAKESSVGAVGPPSSKDFAFRLYRALVSESPGQNVFFSPLSVSMSLGMLSLGAGLKTKTQILDGLGLSLQQGQEDKLHKGFQQLLQRFRQPSDGLQLSLGSALFKDPAVHIRDDFLSAMKTLYMSDTFSTNFGNPEIAKKQINNYVAKQTKGKIVDFIKDLDSTHVMIVVNYIFFKAKWQTAFSETNTHKMDFHVTPKRTTQVPMMNREDGYSYYLDQNISCTVVGIPYQGNAIALFILPSEGKMKQVEDGLDERTLRNWLKMFTKRRLDLYLPKFSIEATYKLENVLPKLGIQDVFTTHADLSGITDHTNIKLSEMVHKSMMEVEESGTTAAAITGAIFTFRSARPSSLKIEFTRPFLLTLMEDSHILFVGKVTRP
partner: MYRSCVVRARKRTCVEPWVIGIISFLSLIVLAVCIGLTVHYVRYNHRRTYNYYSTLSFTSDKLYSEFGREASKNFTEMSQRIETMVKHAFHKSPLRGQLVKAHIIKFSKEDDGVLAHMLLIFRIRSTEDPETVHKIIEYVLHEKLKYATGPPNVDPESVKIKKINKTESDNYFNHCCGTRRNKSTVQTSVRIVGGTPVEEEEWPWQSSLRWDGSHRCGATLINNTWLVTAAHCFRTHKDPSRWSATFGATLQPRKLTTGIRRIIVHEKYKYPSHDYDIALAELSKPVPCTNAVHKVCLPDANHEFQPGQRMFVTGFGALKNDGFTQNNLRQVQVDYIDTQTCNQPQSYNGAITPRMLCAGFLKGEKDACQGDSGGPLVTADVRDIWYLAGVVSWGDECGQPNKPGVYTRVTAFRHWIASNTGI
B2: Plasminogen activator inhibitor 1 (Mus musculus), P22777 (parent)
chain: MQMSSALACLILGLVLVSGKGFTLPLRESHTAHQATDFGVKVFQQVVQASKDRNVVFSPYGVSSVLAMLQMTTAGKTRRQIQDAMGFKVNEKGTAHALRQLSKELMGPWNKNEISTADAIFVQRDLELVQGFMPHFFKLFQTMVKQVDFSEVERARFIINDWVERHTKGMINDLLAKGAVDELTRLVLVNALYFSGQWKTPFLEASTHQRLFHKSDGSTVSVPMMAQSNKFNYTEFTTPDGLEYDVVELPYQRDTLSMFIAAPFEKDVHLSALTNILDAELIRQWKGNMTRLPRLLILPKFSLETEVDLRGPLEKLGMPDMFSATLADFTSLSDQEQLSVAQALQKVRIEVNESGTVASSSTAFVISARMAPTEMVIDRSFLFVVRHNPTETILFMGQVMEP
partner: B1 partner

Variants of: B1
Details: with tm11e_mouse Tmprss11e

Variant | effect of a mutation on the interaction
MRFFPILCLVLFISHGVASRRHSHSKKKKAKESSVGAVGPPSSKDFAFRLYRALVSESPGQNVFFSPLSVSMSLGMLSLGAGLKTKTQILDGLGLSLQQGQEDKLHKGFQQLLQRFRQPSDGLQLSLGSALFKDPAVHIRDDFLSAMKTLYMSDTFSTNFGNPEIAKKQINNYVAKQTKGKIVDFIKDLDSTHVMIVVNYIFFKAKWQTAFSETNTHKMDFHVTPKRTTQVPMMNREDGYSYYLDQNISCTVVGIPYQGNAIALFILPSEGKMKQVEDGLDERTLRNWLKMFTKRRLDLYLPKFSIEATYKLENVLPKLGIQDVFTTHADLSGITDHTNIKLSEMVHKSMMEVEESGTTAAAITGAIFTFRSAAPSSLKIEFTRPFLLTLMEDSHILFVGKVTRP [R374A] | decreasing interaction

Variants of: B2
Details: with tm11e_mouse Tmprss11e

Variant | effect of a mutation on the interaction
MQMSSALACLILGLVLVSGKGFTLPLRESHTAHQATDFGVKVFQQVVQASKDRNVVFSPYGVSSVLAMLQMTTAGKTRRQIQDAMGFKVNEKGTAHALRQLSKELMGPWNKNEISTADAIFVQRDLELVQGFMPHFFKLFQTMVKQVDFSEVERARFIINDWVERHTKGMINDLLAKGAVDELTRLVLVNALYFSGQWKTPFLEASTHQRLFHKSDGSTVSVPMMAQSNKFNYTEFTTPDGLEYDVVELPYQRDTLSMFIAAPFEKDVHLSALTNILDAELIRQWKGNMTRLPRLLILPKFSLETEVDLRGPLEKLGMPDMFSATLADFTSLSDQEQLSVAQALQKVRIEVNESGTVASSSTAFVISAAMAPTEMVIDRSFLFVVRHNPTETILFMGQVMEP [R369A] | decreasing interaction
MQMSSALACLILGLVLVSGKGFTLPLRESHTAHQATDFGVKVFQQVVQASKDRNVVFSPYGVSSVLAMLQMTTAGKTRRQIQDAMGFKVNEKGTAHALRQLSKELMGPWNKNEISTADAIFVQRDLELVQGFMPHFFKLFQTMVKQVDFSEVERARFIINDWVERHTKGMINDLLAKGAVDELTRLVLVNALYFSGQWKTPFLEASTHQRLFHKSDGSTVSVPMMAQSNKFNYTEFTTPDGLEYDVVELPYQRDTLSMFIAAPFEKDVHLSALTNILDAELIRQWKGNMTRLPRLLILPKFSLETEVDLRGPLEKLGMPDMFSATLADFTSLSDQEQLSVAQALQKVRIEVNESGRVRSSSTAFVISARMAPTEMVIDRSFLFVVRHNPTETILFMGQVMEP [T356R;A358R] | decreasing interaction
